B1: full-length Sgt1 (untagged), Saccharomyces cerevisiae (natural protein, S. cerevisiae, UniProt Q08446 1-395, looked up)
chain: MPVEKDLKTAYKALYDEKEPLKALHLYDEILKGSPTNLTALIFKAACLEKLYFGFSDWHSDATMENAKELLDKALMTAEGRGDRSKIGLVNFRYFVHFFNIKDYELAQSYFKKAKNLGYVDDTLPLWEDRLETKLNKKNKKQKDSTNKHTIKPVESIENRGDNNSSHSPISPLKIETAPQESPKFKIDWYQSSTSVTISLFTVNLPESKEQVNIYISPNDRRTLSISYQVPKSGSEFQYNAKLSHEVDPKAVSLKIFPKKLEITLSKIDSTQWKKLEEDILTESSRLSDEGKNSDSATRLLSAETASKERLSYPSSSKKKIDWSKLDIDEEADEEAGSADSFFQKLYAGADPDTKRAMMKSFIESNGTALSTDWEDVSKGTVKTSPPEGMEPKHW
notes: Sgt1, S. cerevisiae, full length, untagged, cloned in MCSII of pColA-Duet; Dimer at working concentrations by SV-AUC and native MS, with minor monomer and trimer; also called Sgt1 FL; wt; source: E. coli BL21 Star (DE3), purified (cation exchange, gel filtration)
B2: His6-tagged full-length Sgt1 D61R (natural protein, S. cerevisiae, UniProt Q08446 1-395, looked up)
chain: B1 chain with D61R
notes: Sgt1, S. cerevisiae, full length, in pET28a, Asp61 to Arg; source: E. coli T7 Express LysY/Iq, purified (HisTrap FF, gel filtration); not shown: His6, N-terminal, kept
B3: Sgt1 TPR domain construct (Sgt1TPR, residues 1-150) (domain or fragment, S. cerevisiae, UniProt Q08446 1-150, looked up)
chain: MPVEKDLKTAYKALYDEKEPLKALHLYDEILKGSPTNLTALIFKAACLEKLYFGFSDWHSDATMENAKELLDKALMTAEGRGDRSKIGLVNFRYFVHFFNIKDYELAQSYFKKAKNLGYVDDTLPLWEDRLETKLNKKNKKQKDSTNKHT
notes: Sgt1, S. cerevisiae, TPR domain, residues 1-150, untagged, cloned in MCSII of pColA-Duet; Treated as a dimer in the ITC fit; forms concentration-dependent trimers; three copies in the asymmetric unit; SeMet-Sgt1TPR was used for the SAD data set; source: E. coli T7 Express LysY/Iq, purified (cation exchange, gel filtration)
B4: Skp1∆1 (Skp1 with residues 65-74 deleted) (natural protein, S. cerevisiae, UniProt P52286 1-194, looked up)
chain: MVTSNVVLVSGEGERFTVDKKIAERSLLLKNYLNDMHDSNLQNNSDSESDSDSETNHKSKDNNNIVMPVPNVRSSVLQKVIEWAEHHRDSNFPDEDDDDSRKSAPVDSWDREFLKVDQEMLYEIILAANYLNIKPLLDAGCKVVAEMIRGRSPEEIRRTFNIVNDFTPEEEAAIRRENEWAEDR
notes: Skp1, S. cerevisiae, in the context of the full-length protein; the LCR (36-64) is retained, residues 65-74 are deleted; also called Skp1Δ1; Skp1d1; source: E. coli, purified (anion exchange, gel filtration)

The target of data set [1] is full-length Sgt1 and Sgt1TPR (S. cerevisiae). As to the kind of experiment: ITC; VP-ITC, 25 °C, 20 mM HEPES pH 7.0, 150 mM NaCl, 1 mM β-mercaptoethanol; 130-160 μM Skp1 injected into 6-13 μM Sgt1 dimer; single site model assuming dimeric Sgt1.
The target of data set [2] is Skp1∆1 (Skp1 with residues 65-74 deleted) (S. cerevisiae, UniProt P52286 1-194, residues 65–74 are deleted). The experiment in a line: ITC. For orientation: Isothermal titration calorimetry measures the heat released or taken up as one component is titrated into another.
Data set [3] concerns the molecule itself. As to the kind of experiment: AUC; sedimentation velocity, 20 °C, absorbance at 280 nm, continuous c(s) fit; Sgt1 at 4.5-22.3 μM monomer (His6-tagged WT and H59A at 11.2 μM).
Data set [4] concerns the molecule itself. As to the kind of experiment: native MS; nano-electrospray, samples exchanged into 150 mM ammonium acetate pH 7; 4.5, 11.2 and 22.3 μM; spectra deconvoluted with Amphitrite.
Data set [5] addresses B1. As to the kind of experiment: ITC; VP-ITC, 25 °C, 20 mM HEPES pH 7.0, 150 mM NaCl, 1 mM β-mercaptoethanol; 130-160 μM Skp1 injected into 6-13 μM Sgt1 dimer; single site model assuming dimeric Sgt1. To be noted: both partners purified.

Five molecules from article PMC5282575, “The crystal structure of the Sgt1-Skp1 complex: the link between Hsp90 and both SCF E3 ubiquitin ligases and kinetochores” (Scientific Reports, 2017) can be followed below.

Changes are numbered by the printed parent chain.

For the molecule “full-length Skp1 (untagged), Saccharomyces cerevisiae (from UniProt P52286 1-194) (natural protein)”, the Kd – broadly, the concentration at which binding is half-saturated – in data set [1] lay in the range of 0.6 to 0.7 µM. B1: in data set [2], binding was characterised by a dissociation constant (Kd) of 3.9 µM. Besides, the stoichiometry N (usually a count of units in the complex or per binding partner) in data set [3] is 2.

For the molecule B2, the “stoichiometry N” value in data set [4] was 2. For the molecule B3, in data set [3], the “stoichiometry N” value was determined as 3. Consider B4, for which the binding result in data set [5] is on record as “binds”.
